# According to the supplement of paper PMC10724198:
# ± gives the standard deviation of the averaged measurements.
# Key:
# Saccharomyces cerevisiae [1] = experiment: protein stability index of tFT-peptide fusion (C-terminal peptide) (PSI (0-1 scale)); higher = more stable (slower turnover)
# Protocol: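 MPS profiling in S. cerevisiae of the tFT-X12 degron library: putative degron peptides plus stable controls, 12 aa, fused to the C-terminus of a sfGFP-mCherry timer. Cells are FACS-sorted into 8 mCherry/sfGFP bins and deep-sequenced. PSI runs from 0 (unstable) to 1 (stable). Backgrounds are wild type, das1Δ and doa10Δ at 30 °C, and wild type, das1Δ, cdc34-1 and cdc53-1 at 37 °C; 2-3 technical replicates each.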
# Saccharomyces cerevisiae [2] = experiment: as above; details: genetic background: wild type; temperature: 30 C
# [3] = genetic background: cdc34-1, temperature: 37 C
# [4] = genetic background: cdc53-1, temperature: 37 C
# [5] = genetic background: das1 deletion, temperature: 30 C
# [6] = genetic background: das1 deletion, temperature: 37 C
# [7] = genetic background: doa10 deletion, temperature: 30 C
# [8] = genetic background: wild type, temperature: 30 C
# [9] = genetic background: wild type, temperature: 37 C
# 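Note: PSI is a weighted mean of sequencing reads over stability bins, variants kept only with over 10 reads, mCherry proximal and sfGFP distal, peptide attached via GGGS linker.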
Sequence,protein stability index (Saccharomyces cerevisiae [1]; [3]),protein stability index (Saccharomyces cerevisiae [1]; [4]),protein stability index (Saccharomyces cerevisiae [1]; [5]),protein stability index (Saccharomyces cerevisiae [1]; [6]),protein stability index (Saccharomyces cerevisiae [1]; [7]),protein stability index (Saccharomyces cerevisiae [1]; [8]),protein stability index (Saccharomyces cerevisiae [1]; [9]),protein stability index (Saccharomyces cerevisiae [2])
WRAFVFYHHFLD,0.665 ± 0.042,0.718 ± 0.028,0.655 ± 0.039,0.699 ± 0.014,0.329 ± 0.029,0.363 ± 0.029,0.5863 ± 0.0019,0.441 ± 0.015
WLSISNLVIACR,0.0277 ± 0.009,0.0619 ± 0.027,0.135 ± 0.039,0.156 ± 0.013,0.0862 ± 0.019,0.115 ± 0.025,0.127 ± 0.017,0.217 ± 0.013
VFLVGFRVTLDS,0.267 ± 0.035,0.289 ± 0.011,0.219 ± 0.025,0.404 ± 0.018,0.189 ± 0.018,0.215 ± 0.033,0.419 ± 0.0069,0.295 ± 0.0062
LMLGARVSRRIH,0.64 ± 0.082,0.687 ± 0.015,0.673 ± 0.026,0.707 ± 0.026,0.227 ± 0.02,0.263 ± 0.049,0.5065 ± 0.0015,0.402 ± 0.0098
PPWRPVALLLLA,0.206 ± 0.029,0.259 ± 0.022,0.247 ± 0.022,0.384 ± 0.007,0.0824 ± 0.02,0.0841 ± 0.018,0.117 ± 0.077,0.156 ± 0.013
CCSRYLSNLCPI,0.674 ± 0.052,0.751 ± 0.036,0.631 ± 0.016,0.7263 ± 0.0048,0.657 ± 0.033,0.648 ± 0.0072,0.726 ± 0.017,0.0813 ± 0.051
RFFFFFPCLLAP,0.349 ± 0.011,0.3411 ± 0.001,0.417 ± 0.019,0.525 ± 0.026,0.519 ± 0.025,0.418 ± 0.029,0.486 ± 0.006,0.457 ± 0.048
RGRLKSSYFILF,0.7 ± 0.032,0.7127 ± 0.0056,0.65 ± 0.013,0.7509 ± 0.0052,0.49 ± 0.0063,0.534 ± 0.047,0.671 ± 0.017,0.497 ± 0.074
GLLVFRCINLRC,0.449 ± 0.013,0.47 ± 0.0085,0.429 ± 0.045,0.5558 ± 0.005,0.421 ± 0.021,0.357 ± 0.03,0.471 ± 0.017,0.357 ± 0.038
MSHVCICRRLML,0.68 ± 0.037,0.743 ± 0.016,0.609 ± 0.025,0.712 ± 0.032,0.404 ± 0.028,0.427 ± 0.0081,0.646 ± 0.048,0.498 ± 0.011
GVKSQLYSFVWF,0.6552 ± 0.0036,0.74 ± 0.015,0.633 ± 0.023,0.747 ± 0.013,0.3088 ± 0.0017,0.352 ± 0.018,0.593 ± 0.014,0.45 ± 0.015
LLFLWVLFLPFA,0.4449 ± 0.00067,0.469 ± 0.005,0.346 ± 0.036,0.5234 ± 0.0037,0.361 ± 0.012,0.342 ± 0.026,0.472 ± 0.0041,0.363 ± 0.045
IEVGVAILLLGE,0.646 ± 0.042,0.668 ± 0.0081,0.551 ± 0.03,0.6842 ± 0.0029,0.5066 ± 0.0028,0.529 ± 0.01,0.6791 ± 0.0027,0.514 ± 0.12
PLLPCRPILFLL,0.559 ± 0.072,0.627 ± 0.027,0.558 ± 0.028,0.6615 ± 0.0026,0.125 ± 0.0042,0.117 ± 0.014,0.182 ± 0.038,0.197 ± 0.043
HCNRRNKIYWYS,0.6116 ± 0.00076,0.73 ± 0.012,0.689 ± 0.063,0.739 ± 0.051,0.106 ± 0.019,0.111 ± 0.032,0.189 ± 0.014,0.304 ± 0.051
LLVKFTFLIIFT,0.146 ± 0.0079,0.257 ± 0.089,0.191 ± 0.011,0.31 ± 0.019,0.27 ± 0.02,0.2 ± 0.015,0.2767 ± 0.0024,0.266 ± 0.025
ESCWVSRVGVCR,0.685 ± 0.03,0.731 ± 0.038,0.649 ± 0.062,0.7347 ± 0.0049,0.588 ± 0.0086,0.608 ± 0.01,0.687 ± 0.018,0.694 ± 0.076
IGLSIWSVVSAL,0.652 ± 0.042,0.689 ± 0.015,0.535 ± 0.016,0.6826 ± 0.0014,0.253 ± 0.0069,0.286 ± 0.033,0.5056 ± 0.0043,0.392 ± 0.024
FLPLFFLPCLSV,0.363 ± 0.0091,0.372 ± 0.031,0.318 ± 0.011,0.431 ± 0.015,0.315 ± 0.011,0.319 ± 0.019,0.413 ± 0.0059,0.361 ± 0.022
DMWYLLWRVCYI,0.51263 ± 0.00047,0.549 ± 0.056,0.43 ± 0.022,0.582 ± 0.02,0.37 ± 0.02,0.409 ± 0.026,0.56 ± 0.01,0.48 ± 0.028

Sequence,protein stability index (Saccharomyces cerevisiae [1]; [3]),protein stability index (Saccharomyces cerevisiae [1]; [4]),protein stability index (Saccharomyces cerevisiae [1]; [5]),protein stability index (Saccharomyces cerevisiae [1]; [6]),protein stability index (Saccharomyces cerevisiae [1]; [7]),protein stability index (Saccharomyces cerevisiae [1]; [8]),protein stability index (Saccharomyces cerevisiae [1]; [9]),protein stability index (Saccharomyces cerevisiae [2])
VGVLWALIVGVR,0.167 ± 0.011,0.226 ± 0.02,0.191 ± 0.035,0.36 ± 0.0087,0.159 ± 0.0094,0.18 ± 0.012,0.289 ± 0.043,0.251 ± 0.035
GMGRVLVEVLLC,0.293 ± 0.0086,0.451 ± 0.036,0.317 ± 0.033,0.5187 ± 0.0023,0.0999 ± 0.0047,0.101 ± 0.021,0.0812 ± 0.017,0.165 ± 0.029
FSVRLCLFVWGC,0.399 ± 0.036,0.481 ± 0.033,0.341 ± 0.028,0.4684 ± 0.004,0.305 ± 0.0062,0.317 ± 0.015,0.4483 ± 0.0025,0.436 ± 0.1
LCFLVALASMLF,0.5426 ± 0.0019,0.579 ± 0.038,0.472 ± 0.036,0.549 ± 0.018,0.4385 ± 0.0032,0.462 ± 0.026,0.5246 ± 0.00074,0.504 ± 0.01
FALFLFFGPLIV,0.435 ± 0.066,0.486 ± 0.012,0.301 ± 0.056,0.52344 ± 0.00026,0.335 ± 0.019,0.331 ± 0.011,0.4857 ± 0.0017,0.4287 ± 0.0032
LIFFFCSWVFRF,0.3037 ± 0.00048,0.291 ± 0.032,0.402 ± 0.061,0.464 ± 0.031,0.327 ± 0.044,0.272 ± 0.038,0.365 ± 0.0071,0.377 ± 0.012
FFFLVRLCRLCV,0.478 ± 0.043,0.558 ± 0.02,0.46 ± 0.019,0.575 ± 0.025,0.266 ± 0.0098,0.261 ± 0.011,0.353 ± 0.0078,0.292 ± 0.055
PPPSRRLTLRLA,0.612 ± 0.035,0.6993 ± 0.0065,0.681 ± 0.02,0.698 ± 0.009,0.179 ± 0.017,0.21 ± 0.02,0.397 ± 0.015,0.292 ± 0.041
CWLFCACFVRLV,0.125 ± 0.014,0.154 ± 0.0052,0.211 ± 0.019,0.333 ± 0.015,0.0691 ± 0.0032,0.0636 ± 0.0022,0.07618 ± 0.00043,0.101 ± 0.0076
RLELTRIMIVAI,0.06 ± 0.0059,0.08016 ± 0.00021,0.182 ± 0.024,0.214 ± 0.0094,0.109 ± 0.015,0.117 ± 0.028,0.102 ± 0.02,0.207 ± 0.035
LYCGLIFFLRGV,0.6263 ± 0.0019,0.6389 ± 0.0017,0.516 ± 0.018,0.6475 ± 0.0026,0.468 ± 0.032,0.472 ± 0.029,0.612 ± 0.0081,0.516 ± 0.084
FHLVIYWCVRGP,0.337 ± 0.013,0.453 ± 0.088,0.299 ± 0.035,0.45 ± 0.0086,0.2623 ± 0.0021,0.281 ± 0.053,0.474 ± 0.034,0.428 ± 0.034
GSGCLFNRWRIL,0.6956 ± 0.0048,0.7303 ± 0.0059,0.6487 ± 0.0063,0.733 ± 0.022,0.169 ± 0.034,0.196 ± 0.027,0.46 ± 0.0074,0.287 ± 0.045
TCVTLRYRLTFE,0.638 ± 0.11,0.666 ± 0.027,0.564 ± 0.022,0.667 ± 0.043,0.585 ± 0.04,0.522 ± 0.025,0.621 ± 0.02,0.508 ± 0.11
VFLCFSWHFFLF,0.4543 ± 0.0039,0.591 ± 0.035,0.411 ± 0.037,0.559 ± 0.036,0.297 ± 0.0049,0.304 ± 0.029,0.467 ± 0.011,0.405 ± 0.012
ICFPLQIFRILV,0.408 ± 0.013,0.46 ± 0.019,0.348 ± 0.021,0.4919 ± 0.0042,0.211 ± 0.014,0.246 ± 0.019,0.345 ± 0.006,0.3549 ± 0.0027
FFVYRFFSLSVC,0.146 ± 0.0021,0.209 ± 0.0047,0.13 ± 0.032,0.247 ± 0.0028,0.0301 ± 0.0028,0.0256 ± 0.0079,0.0647 ± 0.011,0.07222 ± 0.00031
RAFFLLYCTLWA,0.0997 ± 0.0085,0.204 ± 0.039,0.163 ± 0.027,0.266 ± 0.012,0.132 ± 0.016,0.161 ± 0.025,0.24 ± 0.0077,0.206 ± 0.04
FYIWFFRLIYFF,0.421 ± 0.043,0.4414 ± 0.0014,0.402 ± 0.039,0.536 ± 0.019,0.344 ± 0.0048,0.331 ± 0.01,0.453 ± 0.012,0.408 ± 0.014
